Series [1] deals with the molecule itself. As to the kind of experiment: mass photometry; Refeyn OneMP, final concentration ~1-5 nM; oligomeric state of DHS variants.
Series [2] concerns the molecule itself. As to the kind of experiment: cryo-EM structure; complex reconstituted from purified eIF5A-1 and DHS K329A (2 mole eIF5A per 1 mole DHS), 200 mM glycine/NaOH pH 9.3, 200 mM NaCl, 1 mM NAD, 1 mM SPD, purified by SEC; 2.8 A. (In general: SEC sorts molecules by how far they enter the pores of the column.)

Positions count from the first letter of the chain named. In names and notes the source's numbering stands.

B1: deoxyhypusine synthase delY305_I306, patient-derived variant, tag-free (enzyme, human, UniProt P49366 1-369, looked up)
chain: MEGSLEREAPAGALAAVLKHSSTLPPESTQVRGYDFNRGVNYRALLEAFGTTGFQATNFGRAVQQVNAMIEKKLEPLSQDEDQHADLTQSRRPLTSCTIFLGYTSNLISSGIRETIRYLVQHNMVDVLVTTAGGVEEDLIKCLAPTYLGEFSLRGKELRENGINRIGNLLVPNENYCKFEDWLMPILDQMVMEQNTEGVKWTPSKMIARLGKEINNPESVYYWAQKNHIPVFSPALTDGSLGDMIFFHSYKNPGLVLDIVEDLRLINTQAIFAKCTGMIILGGGVVKHHIANANLMRNGADYAVNTAQEFDGSDSGARPDEAVSWGKIRVDAQPVKVYADASLVFPLLVAETFAQKMDAFMHEKNED
notes: deoxyhypusine synthase (DHS), Homo sapiens, UniProt P49366, residues 1-369, pathological variant lacking Y305 and I306; Tag removal follows the general purification procedure; also called DHS^delY305_I306; DHS^del305Y_306I; source: E. coli, purified from the soluble fraction (HisTrap, TEV cleavage, reverse HisTrap, SEC); not shown: His6, N-terminal, cleaved
As usually defined, the stoichiometry N is a count of units in the complex or per binding partner. In the case of B1, the “stoichiometry N” value in series [1] came out at 2.

B2: deoxyhypusine synthase K329A, catalytically dead variant, tag-free (enzyme, human, UniProt P49366 1-369, looked up)
chain: MEGSLEREAPAGALAAVLKHSSTLPPESTQVRGYDFNRGVNYRALLEAFGTTGFQATNFGRAVQQVNAMIEKKLEPLSQDEDQHADLTQSRRPLTSCTIFLGYTSNLISSGIRETIRYLVQHNMVDVLVTTAGGVEEDLIKCLAPTYLGEFSLRGKELRENGINRIGNLLVPNENYCKFEDWLMPILDQMVMEQNTEGVKWTPSKMIARLGKEINNPESVYYWAQKNHIPVFSPALTDGSLGDMIFFHSYKNPGLVLDIVEDLRLINTQAIFAKCTGMIILGGGVVKHHIANANLMRNGADYAVYINTAQEFDGSDSGARPDEAVSWGAIRVDAQPVKVYADASLVFPLLVAETFAQKMDAFMHEKNED
notes: deoxyhypusine synthase (DHS), Homo sapiens, UniProt P49366, residues 1-369; Tag removal follows the general purification procedure; used for cryo-EM, HDX-MS and crystallography; also called DHS^K329A; source: E. coli, purified (HisTrap, TEV cleavage, reverse HisTrap, SEC); not shown: His6, N-terminal, cleaved
On to B2, for which the “stoichiometry N” value in series [2] is 4.

B3: deoxyhypusine synthase N173S, patient-derived variant, tag-free (enzyme, human, UniProt P49366 1-369, looked up)
chain: B2 chain with N173S, A329K
notes: deoxyhypusine synthase (DHS), Homo sapiens, UniProt P49366, residues 1-369, pathological variant N173S; Tag removal follows the general purification procedure; also called DHS^N173S; source: E. coli, purified from the soluble fraction (HisTrap, TEV cleavage, reverse HisTrap, SEC); not shown: His6, N-terminal, cleaved
With B3, the “stoichiometry N” value in series [1] stood at 4.

Source of the values: publication PMC10042821, “Cryo-EM structure of human eIF5A-DHS complex reveals the molecular basis of hypusination-associated neurodegenerative disorders” (Nature Communications, 2023).
